This is an account of results in patent US20240400696A1.

Residue numbers refer to the chain shown, from its start.

First the molecules themselves.
B1: AC3436 (bispecific antibody, V domains shown)
VH: EVQLLESGGGIVQPGGSLKLSCAASGFTFNTYAMNWVRQAPGKGLEWVARIRSKYNNYATYYADSVKDRFTISRDDSKNTVYLQMNNLKTEDTAVYYCVRHENFGNSYVSWFAHWGQGTLVTVSS
VL: ELVVTQEPSLTVSPGGTVTLTCRSSNGAVTSSNYANWVQQKPGQAPRGLIGGTNKRAPGTPARFSGSSLGGKAALTLSGVQPEDEAVYYCALWYPNLWVFGGGTKLTVL
B2: AC3372 (bispecific antibody, V domains shown)
VH: B1 VH with V48S
VL: B1 VL with S68L
B3: AC3437 (bispecific antibody, V domains shown)
VH: B1 VH
VL: B1 VL with S68K
B4: AC3400 (bispecific antibody, V domains shown)
VH: B1 VH with Y55G
VL: B1 VL with S68L
B5: AC3370 (bispecific antibody, V domains shown)
VH: B1 VH with V48E
VL: B1 VL with S68L
B6: AC3398 (bispecific antibody, V domains shown)
VH: B1 VH with Y55A
VL: B1 VL with S68L
B7: AC3377 (bispecific antibody, V domains shown)
VH: B1 VH with A49G
VL: B1 VL with S68L
B8: AC3401 (bispecific antibody, V domains shown)
VH: B1 VH with Y55K
VL: B1 VL with S68L
B9: AC3397 (bispecific antibody, V domains shown)
VH: B1 VH with K54P
VL: B1 VL with S68L
B10: AC3369 (bispecific antibody, V domains shown)
VH: B1 VH with V48A
VL: B1 VL with S68L
B11: AC3399 (bispecific antibody, V domains shown)
VH: B1 VH with Y55R
VL: B1 VL with S68L
B12: AC3373 (bispecific antibody, V domains shown)
VH: B1 VH with V48T
VL: B1 VL with S68L
B13: AC3383 (bispecific antibody, V domains shown)
VH: B1 VH with I51A
VL: B1 VL with S68L
B14: AC3385 (bispecific antibody, V domains shown)
VH: B1 VH with I51T
VL: B1 VL with S68L
B15: AC3371 (bispecific antibody, V domains shown)
VH: B1 VH with V48G
VL: B1 VL with S68L
B16: AC3439 (bispecific antibody, V domains shown)
VH: B1 VH
VL: B1 VL with S68T
B17: AC3389 (bispecific antibody, V domains shown)
VH: B1 VH with R52Q
VL: B1 VL with S68L
B18: AC3368 (bispecific antibody, V domains shown)
VH: B1 VH with W47E
VL: B1 VL with S68L
B19: AC3374 (bispecific antibody, V domains shown)
VH: B1 VH with V48W
VL: B1 VL with S68L
B20: AC3438 (bispecific antibody, V domains shown)
VH: B1 VH
VL: B1 VL with S68N
B21: AC3396 (bispecific antibody, V domains shown)
VH: B1 VH with S53T
VL: B1 VL with S68L
B22: AC3367 (bispecific antibody, V domains shown)
VH: B1 VH with W47D
VL: B1 VL with S68L

CD3, sequence (P07766 23-126): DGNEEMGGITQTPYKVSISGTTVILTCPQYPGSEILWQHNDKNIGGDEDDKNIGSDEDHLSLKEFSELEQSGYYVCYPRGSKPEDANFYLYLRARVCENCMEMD

This test concerns the target CD3. The test can be described thus: Octet, crude lysate. In general terms: Biolayer interferometry detects binding as a change in optical thickness at a sensor tip.
With B1, the Kd – broadly, a measure of binding affinity in units of concentration – amounted to 7.3 nM.
The value for B2 was 11.2 nM; that for B3 was 3.2 nM; that for B4 was 20.1 nM.
The value for B5 was 165 nM; that for B6 was 11.5 nM; that for B7 was 4.5 nM.
As to B8, the Kd was found to be 5.1 nM.
The figure for B9 is 51 nM; for B10 it is 8.3 nM.
The value for B11 was 3.8 nM.
The figure for B12 is 5.7 nM; for B13 it is 1180 nM.
Consider B14, for which the Kd was found to be 425 nM.
The molecule B15 had a Kd of 71.5 nM.
The figure for B16 is 8.9 nM; for B17 it is 434 nM; for B18 it is 18.1 nM.
The figure for B19 is 34300 nM; for B20 it is 8.3 nM.
The figure for B21 is 4.8 nM; for B22 it is 40.2 nM.
